# Results: patent US10047131B2, “Peptides and combination of peptides for use in immunotherapy against ovarian cancer and other cancers” (immatics biotechnologies GmbH, priority 2015, dated 2018)
# Biological target: HLA-A*02:01 (Homo sapiens, UniProt P04439, D140Y/D185E/D98H/E176V/E277Q/G131W/G231S/I119V/I121R/I166T/I218V/L300P/L318F/N151K/N90K/P208A/P217A/Q86G/Q94H/R138H/R169H/T345S)
# Experiment: MHC binding assay (UV-ligand exchange, ELISA of exchange yield)
# Settings: binding to HLA-A*02:01, UV-ligand exchange
# Method in brief: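 Peptide–MHC complexes made by UV-ligand exchange, where a UV-cleavable peptide is replaced by the test peptide. Exchange yield measured by ELISA: complexes diluted 100-fold on streptavidin-coated plates, stabilized complexes detected with HRP anti-β2m, TMB read at 450 nm.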
row,Substance,"Peptide exchange (MHC class I binding score, peptide exchange yield)"
1,427 (ALLPLSPYL; listed as Homo sapiens) [compound 427],“+++” (≥50 = +++)
2,428 (KLGHTDILVGV; listed as Homo sapiens) [compound 428],“++” (≥20% = ++)
3,429 (GLVNDLARV; listed as Homo sapiens) [compound 429],“++” (≥20% = ++)
4,430 (HLYSSIEHLTT; listed as Homo sapiens) [compound 430],“+++” (≥50 = +++)
5,431 (SLVNVVPKL; listed as Homo sapiens) [compound 431],“++” (≥20% = ++)
6,432 (TLIEESAKV; listed as Homo sapiens) [compound 432],“++” (≥20% = ++)
7,433 (AMLNEPWAV; listed as Homo sapiens) [compound 433],“+++” (≥50 = +++)
8,434 (KVSNSGITRV; listed as Homo sapiens) [compound 434],“++” (≥20% = ++)
9,436 (HLAEVSAEV; listed as Homo sapiens) [compound 436],“+++” (≥50 = +++)
10,437 (SMAPGLVIQAV; listed as Homo sapiens) [compound 437],“+++” (≥50 = +++)
11,438 (KLLPLAGLYL; listed as Homo sapiens) [compound 438],“++++” (≥75% = ++++)
12,439 (YLLQEIYGI; listed as Homo sapiens) [compound 439],“+++” (≥50 = +++)
13,440 (ALADGVTMQV; listed as Homo sapiens) [compound 440],“++” (≥20% = ++)
14,441 (ALLENPKMEL; listed as Homo sapiens) [compound 441],“+++” (≥50 = +++)
15,442 (GLLGGGGVLGV; listed as Homo sapiens) [compound 442],“+++” (≥50 = +++)
16,443 (GLWEIENNPTV; listed as Homo sapiens) [compound 443],“+++” (≥50 = +++)
17,444 (GLLRDEALAEV; listed as Homo sapiens) [compound 444],“+++” (≥50 = +++)
18,446 (QLIPALAKV; listed as Homo sapiens) [compound 446],“+++” (≥50 = +++)
19,447 (QLVPALAKV; listed as Homo sapiens) [compound 447],“++” (≥20% = ++)
20,448 (NLLETKLQL; listed as Homo sapiens) [compound 448],“+++” (≥50 = +++)
21,449 (KLAEGLDIQL; listed as Homo sapiens) [compound 449],“+++” (≥50 = +++)

row,Substance,"Peptide exchange (MHC class I binding score, peptide exchange yield)"
1,450 (FMIDASVHPTL; listed as Homo sapiens) [compound 450],“+++” (≥50 = +++)
2,451 (LLLLDTVTMQV; listed as Homo sapiens) [compound 451],“++” (≥20% = ++)
3,452 (ILLEHGADPNL; listed as Homo sapiens) [compound 452],“+++” (≥50 = +++)
4,453 (KLLEATSAV; listed as Homo sapiens) [compound 453],“++” (≥20% = ++)
5,454 (KLPPPPPQA; listed as Homo sapiens) [compound 454],“+++” (≥50 = +++)
6,455 (SLLKEPQKVQL; listed as Homo sapiens) [compound 455],“++” (≥20% = ++)
7,456 (LLIGHLERV; listed as Homo sapiens) [compound 456],“+++” (≥50 = +++)
8,457 (SLLPGNLVEKV; listed as Homo sapiens) [compound 457],“+++” (≥50 = +++)
9,458 (SLIDKLYNI; listed as Homo sapiens) [compound 458],“++” (≥20% = ++)
10,459 (ALITEVVRL; listed as Homo sapiens) [compound 459],“++” (≥20% = ++)
11,460 (AMLEKNYKL; listed as Homo sapiens) [compound 460],“++++” (≥75% = ++++)
12,461 (VMFRTPLASV; listed as Homo sapiens) [compound 461],“++” (≥20% = ++)
13,462 (KLAKQPETV; listed as Homo sapiens) [compound 462],“+++” (≥50 = +++)
14,463 (SLVESHLSDQLTL; listed as Homo sapiens) [compound 463],“+++” (≥50 = +++)
15,464 (ALNDCIYSV; listed as Homo sapiens) [compound 464],“+++” (≥50 = +++)
16,465 (QLCDLNAEL; listed as Homo sapiens) [compound 465],“+++” (≥50 = +++)
17,466 (VLIANLEKL; listed as Homo sapiens) [compound 466],“++++” (≥75% = ++++)
18,467 (FLAKDFNFL; listed as Homo sapiens) [compound 467],“+++” (≥50 = +++)
19,468 (YLRSVGDGETV; listed as Homo sapiens) [compound 468],“+++” (≥50 = +++)
20,469 (YLASDEITTV; listed as Homo sapiens) [compound 469],“+++” (≥50 = +++)
21,471 (YLYNNMIAKI; listed as Homo sapiens) [compound 471],“+++” (≥50 = +++)

row,Substance,"Peptide exchange (MHC class I binding score, peptide exchange yield)"
1,472 (KLLEVSDDPQV; listed as Homo sapiens) [compound 472],“+++” (≥50 = +++)
2,473 (AMATESILHFA; listed as Homo sapiens) [compound 473],“+++” (≥50 = +++)
3,474 (YLDPALELGPRNV; listed as Homo sapiens) [compound 474],“+++” (≥50 = +++)
4,475 (LLLNEEALAQI; listed as Homo sapiens) [compound 475],“+++” (≥50 = +++)
5,476 (ALMERTGYSMV; listed as Homo sapiens) [compound 476],“+++” (≥50 = +++)
6,477 (ALLPASGQIAL; listed as Homo sapiens) [compound 477],“+++” (≥50 = +++)
7,478 (YLLHEKLNL; listed as Homo sapiens) [compound 478],“+++” (≥50 = +++)
8,479 (SLFGNSGILENV; listed as Homo sapiens) [compound 479],“+++” (≥50 = +++)
9,480 (ALLEDSCHYL; listed as Homo sapiens) [compound 480],“+++” (≥50 = +++)
10,481 (GLIEDYEALL; listed as Homo sapiens) [compound 481],“+++” (≥50 = +++)
11,484 (SLIEKVTQL; listed as Homo sapiens) [compound 484],“+++” (≥50 = +++)
12,485 (NVPDSFNEV; listed as Homo sapiens) [compound 485],“+++” (≥50 = +++)
13,486 (AVMESIQGV; listed as Homo sapiens) [compound 486],“+++” (≥50 = +++)
14,487 (LLINSVFHV; listed as Homo sapiens) [compound 487],“+++” (≥50 = +++)
15,488 (FLAEDPKVTL; listed as Homo sapiens) [compound 488],“+++” (≥50 = +++)
16,489 (KMWEELPEVV; listed as Homo sapiens) [compound 489],“+++” (≥50 = +++)
17,490 (FLLQHVQEL; listed as Homo sapiens) [compound 490],“+++” (≥50 = +++)
18,491 (GLNDRSDAV; listed as Homo sapiens) [compound 491],“++” (≥20% = ++)
19,492 (SLFDGFADGLGV; listed as Homo sapiens) [compound 492],“+++” (≥50 = +++)
